Publication PMC10397247
Each block holds one binder with its values, some of them ahead of it.

Columns and labels:
Assay in all cases: two-hybrid library CCmax;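 also: natural log of median RNA to DNA barcode read ratio; higher means stronger binding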
[1] = biological target: T1, 4H2238-AA; conditions: mean of both orientations
T1 chain: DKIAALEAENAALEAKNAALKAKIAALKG

[2] = biological target: T2, 4H55-AA; conditions: mean of both orientations
T2 chain: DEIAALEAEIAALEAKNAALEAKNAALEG

[3] = biological target: T3, 4H2935-AA; conditions: mean of both orientations
T3 chain: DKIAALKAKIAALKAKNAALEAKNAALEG

[4] = biological target: T4, 4H662-AA; conditions: mean of both orientations
T4 chain: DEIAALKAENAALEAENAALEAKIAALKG

[5] = biological target: T5, 4H2536-AA; conditions: mean of both orientations
T5 chain: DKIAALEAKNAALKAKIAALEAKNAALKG

[6] = biological target: T6, 4H2513-AA; conditions: mean of both orientations
T6 chain: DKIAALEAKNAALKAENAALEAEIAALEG

[7] = biological target: T7, 4H4033-AA; conditions: mean of both orientations
T7 chain: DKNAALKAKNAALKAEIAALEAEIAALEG

[8] = biological target: T8, 4H3664-AA; conditions: mean of both orientations
T8 chain: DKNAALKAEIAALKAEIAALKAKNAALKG

[9] = biological target: T9, 4H3922-AA; conditions: mean of both orientations
T9 chain: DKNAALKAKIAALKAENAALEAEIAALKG

[10] = biological target: T10, 4H3605-AA; conditions: mean of both orientations
T10 chain: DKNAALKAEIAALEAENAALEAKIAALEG

[11] = biological target: T11, 4H2614-AA; conditions: mean of both orientations
T11 chain: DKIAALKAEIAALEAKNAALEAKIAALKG

[12] = biological target: T12, 4H481-AA; conditions: mean of both orientations
T12 chain: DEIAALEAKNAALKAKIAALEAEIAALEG

[13] = biological target: T13, 4H2608-AA; conditions: mean of both orientations
T13 chain: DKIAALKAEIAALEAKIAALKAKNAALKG

[14] = biological target: T14, 4H2211-AA
T14 chain: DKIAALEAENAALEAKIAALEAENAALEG

[15] = biological target: T15, 4H327-AA; conditions: mean of both orientations
T15 chain: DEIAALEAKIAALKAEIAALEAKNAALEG

[16] = biological target: T16, 4H369-AA; conditions: mean of both orientations
T16 chain: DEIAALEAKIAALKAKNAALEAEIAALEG

[17] = biological target: T17, 4H2726-AA; conditions: mean of both orientations
T17 chain: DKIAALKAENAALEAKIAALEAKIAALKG

[18] = biological target: T18, 4H3625-AA; conditions: mean of both orientations
T18 chain: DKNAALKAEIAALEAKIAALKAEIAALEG

[19] = biological target: T19, 4H4038-AA; conditions: mean of both orientations
T19 chain: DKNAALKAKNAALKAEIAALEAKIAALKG

[20] = biological target: T20, 4H3590-AA; conditions: mean of both orientations
T20 chain: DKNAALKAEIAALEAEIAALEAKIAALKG

[21] = biological target: GCN2_T; conditions: mean of both orientations
[22] = biological target: T21, 4H3049-AA; conditions: mean of both orientations
T21 chain: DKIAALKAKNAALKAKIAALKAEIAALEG

[23] = biological target: T22, 4H2622-AA
T22 chain: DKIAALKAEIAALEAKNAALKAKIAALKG

[24] = biological target: T23, 4H384-AA; conditions: mean of both orientations
T23 chain: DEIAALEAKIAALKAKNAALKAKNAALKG

[25] = biological target: T24, 4H_BCR; conditions: mean of both orientations
T24 chain: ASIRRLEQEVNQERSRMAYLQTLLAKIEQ

[26] = biological target: T25, 4H2736-AA; conditions: mean of both orientations
T25 chain: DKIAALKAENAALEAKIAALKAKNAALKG

[27] = biological target: T26, O11-AA; conditions: mean of both orientations
T26 chain: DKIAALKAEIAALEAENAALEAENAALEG

[28] = biological target: T27, 4H3905-AA; conditions: mean of both orientations
T27 chain: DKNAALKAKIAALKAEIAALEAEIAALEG

[29] = biological target: T28, O14-AA; conditions: mean of both orientations
T28 chain: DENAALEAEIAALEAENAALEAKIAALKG

[30] = biological target: T29, 4H3587-AA; conditions: mean of both orientations
T29 chain: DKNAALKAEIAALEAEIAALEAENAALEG

[31] = biological target: T30, 4H43-AA; conditions: mean of both orientations
T30 chain: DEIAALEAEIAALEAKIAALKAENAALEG

[32] = biological target: T31, 4H510-AA; conditions: mean of both orientations
T31 chain: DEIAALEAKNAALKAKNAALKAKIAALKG

[33] = biological target: T32, 4H2705-AA; conditions: mean of both orientations
T32 chain: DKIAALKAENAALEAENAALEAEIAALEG

[34] = biological target: 4H_GCN4; conditions: mean of both orientations
Sequence of 4H_GCN4 (chain, as listed by the source): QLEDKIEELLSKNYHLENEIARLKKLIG

[35] = biological target: T33, 4H337-AA; conditions: mean of both orientations
T33 chain: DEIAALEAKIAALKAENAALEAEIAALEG

[36] = biological target: T34, 4H_APH; conditions: mean of both orientations
T34 chain: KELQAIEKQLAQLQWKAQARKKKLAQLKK

[37] = biological target: T35, 4H451-AA; conditions: mean of both orientations
T35 chain: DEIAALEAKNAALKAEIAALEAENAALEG

[38] = biological target: T36, O13-AA; conditions: mean of both orientations
T36 chain: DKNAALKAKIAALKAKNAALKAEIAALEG

[39] = biological target: T37, 4H2888-AA; conditions: mean of both orientations
T37 chain: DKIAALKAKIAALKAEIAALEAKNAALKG

interaction score [1]: -1.07 | interaction score [2]: -1.44 | interaction score [3]: -1.25 | interaction score [4]: -1.54 | interaction score [5]: 1.92 | interaction score [6]: -1.48 | interaction score [7]: -1.42 | interaction score [8]: -1.82 | interaction score [9]: -1.15 | interaction score [10]: -1.6 | interaction score [11]: -1.44 | interaction score [12]: 1.2 | interaction score [13]: -0.966 | interaction score [14]: -0.565 | interaction score [15]: -1.1 | interaction score [16]: -1.37 | interaction score [17]: 0.569 | interaction score [18]: -1.16
Binder: DKIAALEAENAALEAKIAALEAENAALEG [4H2211-AA]

interaction score [19]: -1.2 | interaction score [20]: 0.684 | interaction score [21]: 0.0302 | interaction score [22]: 0.212 | interaction score [23]: 1.07 | interaction score [24]: -1.12 | interaction score [25]: -0.274 | interaction score [26]: -0.125 | interaction score [27]: 1.62 | interaction score [28]: 1.43 | interaction score [29]: 2.2 | interaction score [30]: 0.659 | interaction score [31]: 1.57 | interaction score [32]: -0.508 | interaction score [33]: 0.956 | interaction score [34]: 0.309 | interaction score [35]: 2.35 | interaction score [36]: -1.87 | interaction score [37]: -0.0617 | interaction score [38]: 0.551 | interaction score [39]: 0.116 | interaction score [18]: 1.6
Binder: DKIAALKAEIAALEAKNAALKAKIAALKG [4H2622-AA]
